{"source": "paper PMC4321873", "origin": "cited, not measured here", "biological_target": "Glu286 (UniProt position 286, FFGHPEVYIIV)", "test": "kinetics"}
{"substance": "Cytochrome c oxidase (aa3-type), subunit I (Rhodobacter sphaeroides)", "values": [{"measurement": "pKa", "value": "∼9.4"}]}
